Source: article PMC12138128, “Thermal proteome profiling (TPP) reveals NAMPT as the anti-glioma target of phenanthroindolizidine alkaloid PF403” (Acta Pharmaceutica Sinica. B, 2025)

Biological target: the molecule itself
Test: crystal structure; cocrystal of recombinant NAMPT with the small molecule PF403, hanging drop vapor diffusion, 1.86 Å; NAMPT seen as a dimer with two PF403 molecules

B1: nicotinamide phosphoribosyl transferase (NAMPT), recombinant, His-tagged (enzyme, human)
chain: MNPAAEAEFNILLATDSYKVTHYKQYPPNTSKVYSYFECREKKTENSKLRKVKYEETVFYGLQYILNKYLKGKVVTKEKIQEAKDVYKEHFQDDVFNEKGWNYILEKYDGHLPIEIKAVPEGFVIPRGNVLFTVENTDPECYWLTNWIETILVQSWYPITVATNSREQKKILAKYLLETSGNLDGLEYKLHDFGYRGVSSQETAGIGASAHLVNFKGTDTVAGLALIKKYYGTKDPVPGYSVPAAEHSTITAWGKDHEKDAFEHIVTQFSSVPVSVVSDSYDIYNACEKIWGEDLRHLIVSRSTQAPLIIRPDSGNPLDTVLKVLEILGKKFPVTENSKGYKLLPPYLRVIQGDGVDINTLQEIVEGMKQKMWSIENIAFGSGGGLLQKLTRDLLNCSFKCSYVVTNGLGINVFKDPVADPNKRSKKGRLSLHRTPAGNFVTLEEGKGDLEEYGQDLLHTVFKNGKVTKSYSFDEIRKNAQLNIELEAAHH
notes: nicotinamide phosphoribosyl transferase (NAMPT), human; Dimer in the cocrystal structure with the small molecule PF403 (PDB 8Y55); also called recombinant NAMPT; WT NAMPT; source: E. coli BL21 (DE3), pET-28a(+), purified (Ni-NTA)
B1: binds.
